The target in assay [1] is mNrxn1β^−SS4-FLAG (C-terminally FLAG-tagged mouse Nrxn1β lacking the SS4 insert) (mouse). The experiment in a line: saturation binding on cells with Scatchard analysis.
The target of assay [2] is mNrxn1β^+SS4-FLAG (C-terminally FLAG-tagged mouse Nrxn1β containing the SS4 insert) (mouse) (UniProt P0DI97). Described as above.
Sequence of mNrxn1β^+SS4-FLAG (C-terminally FLAG-tagged mouse Nrxn1β containing the SS4 insert) (mouse) (P0DI97 47-468): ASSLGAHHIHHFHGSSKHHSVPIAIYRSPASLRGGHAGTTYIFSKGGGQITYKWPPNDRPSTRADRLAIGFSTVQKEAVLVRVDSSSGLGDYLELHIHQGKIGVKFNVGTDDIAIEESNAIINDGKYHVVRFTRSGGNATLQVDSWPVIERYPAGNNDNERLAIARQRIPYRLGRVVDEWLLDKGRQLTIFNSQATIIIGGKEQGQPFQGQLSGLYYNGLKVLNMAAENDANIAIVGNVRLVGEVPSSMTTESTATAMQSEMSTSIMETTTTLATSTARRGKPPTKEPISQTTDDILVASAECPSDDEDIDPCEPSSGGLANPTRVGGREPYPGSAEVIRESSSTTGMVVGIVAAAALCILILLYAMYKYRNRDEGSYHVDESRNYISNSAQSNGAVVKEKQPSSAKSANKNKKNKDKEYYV

In the case of “Ig-Clstn3 (Ig-fused calsyntenin-3) (from UniProt Q99JH7 20-956) (Fc fusion)”, the dissociation constant Kd in assay [1] stood at 106 nM; in assay [2], 51.4 nM.

The term Kd denotes the equilibrium constant for the complex coming apart. High values mean weaker binding, low ones tighter binding.

Values taken from paper doi:10.1101/2020.01.24.918722.
